The target in assay [1] is T1, human thyroid-stimulating hormone receptor (TSHR) (human, UniProt P16473 21-764). Put plainly: cell-based or functional assay.
Assay [2] concerns the target T2, hFcRn-Avi (Biosystems, FCM-H82W7) (human (printed as hFcRn), UniProt P55899 24-297; P61769 21-119, biotin on the Avi tag is implied by capture on an SA chip).
T2 construct: Bought reagent
Briefly: SPR (Biacore 8K+), hFcRn-Avi captured on SA chip, antibody in flow, pH 6.0, 25 C, steady-state fit.

The target of assay [3] is T1, human thyroid-stimulating hormone …. Put plainly: cell-based or functional assay. This is another data set of the same source.
Assay [4] has as its target T3, mouse thyroid-stimulating hormone receptor (TSHR) (mouse, UniProt P47750 22-764).
T3 construct: whole, on cells; Overexpressed on 293 cells; also called mouse TSHR; murine TSHR
Briefly: flow cytometry (FACS), 293 cells overexpressing mouse TSHR. For orientation: Flow cytometry measures light scatter and fluorescence of single cells or particles in a stream.

Assay [5] has as its target T4, monkey thyroid-stimulating hormone receptor (TSHR) (monkey, UniProt A0A2K5X226 21-764).
T4 construct: Overexpressed on 293 cells; also called monkey TSHR
Briefly: flow cytometry (FACS), 293 cells overexpressing monkey TSHR.

Assay [6] addresses T1, human thyroid-stimulating hormone …. Briefly: flow cytometry (FACS), 293 cells overexpressing human TSHR.
Assay [7] has as its target T3, mouse thyroid-stimulating hormone …. Put plainly: flow cytometry (FACS), 293 cells overexpressing mouse TSHR. This is another data set of the same source.
The target of assay [8] is T4, monkey thyroid-stimulating hormone …. Briefly: flow cytometry (FACS), 293 cells overexpressing monkey TSHR. The source holds these as a separate data set.
Assay [9] concerns the target T1, human thyroid-stimulating hormone …. Put plainly: flow cytometry (FACS), 293 cells overexpressing human TSHR. This is another data set of the same source.
The target is the same in assay [10]. Briefly: cell-based or functional assay. This is another data set of the same source.

Numbering of substitutions follows the chain as printed. Read-outs that look alike come from different tables or passages of the source.

T3 sequence (P47750 22-764): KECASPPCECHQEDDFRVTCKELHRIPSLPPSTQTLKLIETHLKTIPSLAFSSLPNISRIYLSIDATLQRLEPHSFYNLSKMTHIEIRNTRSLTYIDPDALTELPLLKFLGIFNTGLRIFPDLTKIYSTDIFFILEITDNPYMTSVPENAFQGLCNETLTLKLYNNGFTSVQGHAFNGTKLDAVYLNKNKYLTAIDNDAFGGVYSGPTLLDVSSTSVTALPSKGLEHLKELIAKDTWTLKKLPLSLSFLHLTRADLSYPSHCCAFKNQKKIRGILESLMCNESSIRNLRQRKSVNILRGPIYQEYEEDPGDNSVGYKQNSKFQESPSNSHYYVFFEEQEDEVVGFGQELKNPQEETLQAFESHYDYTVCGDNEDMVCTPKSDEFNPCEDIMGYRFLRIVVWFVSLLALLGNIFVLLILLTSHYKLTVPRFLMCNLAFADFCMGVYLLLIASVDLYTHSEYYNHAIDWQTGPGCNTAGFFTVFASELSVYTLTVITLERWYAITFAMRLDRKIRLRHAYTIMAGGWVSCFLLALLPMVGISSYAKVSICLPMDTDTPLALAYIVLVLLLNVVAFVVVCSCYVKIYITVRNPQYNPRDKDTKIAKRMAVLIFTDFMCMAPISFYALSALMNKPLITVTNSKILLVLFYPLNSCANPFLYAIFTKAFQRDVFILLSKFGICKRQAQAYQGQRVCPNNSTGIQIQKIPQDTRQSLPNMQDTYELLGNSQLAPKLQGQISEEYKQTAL
T2 sequence (P55899 24-297 limits assumed, chain 1 of 2): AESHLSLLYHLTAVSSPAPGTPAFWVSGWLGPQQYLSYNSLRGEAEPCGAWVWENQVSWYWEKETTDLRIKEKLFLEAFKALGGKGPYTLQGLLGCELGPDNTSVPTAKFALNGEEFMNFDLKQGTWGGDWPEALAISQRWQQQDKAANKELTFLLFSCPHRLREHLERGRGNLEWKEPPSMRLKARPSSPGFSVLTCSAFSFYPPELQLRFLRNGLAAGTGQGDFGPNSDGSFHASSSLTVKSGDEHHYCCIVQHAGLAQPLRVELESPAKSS
T2 sequence (P61769 21-119 limits assumed, chain 2 of 2): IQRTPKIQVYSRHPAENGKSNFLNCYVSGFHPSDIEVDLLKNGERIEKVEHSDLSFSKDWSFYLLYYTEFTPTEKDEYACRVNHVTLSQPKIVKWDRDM
T1 sequence (P16473 21-764): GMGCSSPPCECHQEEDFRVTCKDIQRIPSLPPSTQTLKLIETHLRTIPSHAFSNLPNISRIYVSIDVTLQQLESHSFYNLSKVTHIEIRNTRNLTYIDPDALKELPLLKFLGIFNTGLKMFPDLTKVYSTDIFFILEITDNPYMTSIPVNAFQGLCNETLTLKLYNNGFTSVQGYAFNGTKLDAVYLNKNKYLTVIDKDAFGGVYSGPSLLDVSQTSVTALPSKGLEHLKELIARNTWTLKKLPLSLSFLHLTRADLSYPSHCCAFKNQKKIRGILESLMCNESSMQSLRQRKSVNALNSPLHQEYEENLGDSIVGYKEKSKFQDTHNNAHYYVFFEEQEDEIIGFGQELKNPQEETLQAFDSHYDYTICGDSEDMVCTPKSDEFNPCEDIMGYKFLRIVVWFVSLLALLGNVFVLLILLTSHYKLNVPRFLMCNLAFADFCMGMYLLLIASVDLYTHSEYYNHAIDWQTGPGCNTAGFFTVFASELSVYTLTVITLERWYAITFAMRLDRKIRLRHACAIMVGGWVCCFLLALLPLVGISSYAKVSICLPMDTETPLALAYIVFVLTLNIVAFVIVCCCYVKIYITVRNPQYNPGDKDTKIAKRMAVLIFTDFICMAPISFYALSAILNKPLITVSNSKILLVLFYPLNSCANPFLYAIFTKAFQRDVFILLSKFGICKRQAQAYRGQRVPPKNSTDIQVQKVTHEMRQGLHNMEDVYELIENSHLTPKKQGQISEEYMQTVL
T4 sequence (A0A2K5X226 entry or part of it limits assumed, form in doubt): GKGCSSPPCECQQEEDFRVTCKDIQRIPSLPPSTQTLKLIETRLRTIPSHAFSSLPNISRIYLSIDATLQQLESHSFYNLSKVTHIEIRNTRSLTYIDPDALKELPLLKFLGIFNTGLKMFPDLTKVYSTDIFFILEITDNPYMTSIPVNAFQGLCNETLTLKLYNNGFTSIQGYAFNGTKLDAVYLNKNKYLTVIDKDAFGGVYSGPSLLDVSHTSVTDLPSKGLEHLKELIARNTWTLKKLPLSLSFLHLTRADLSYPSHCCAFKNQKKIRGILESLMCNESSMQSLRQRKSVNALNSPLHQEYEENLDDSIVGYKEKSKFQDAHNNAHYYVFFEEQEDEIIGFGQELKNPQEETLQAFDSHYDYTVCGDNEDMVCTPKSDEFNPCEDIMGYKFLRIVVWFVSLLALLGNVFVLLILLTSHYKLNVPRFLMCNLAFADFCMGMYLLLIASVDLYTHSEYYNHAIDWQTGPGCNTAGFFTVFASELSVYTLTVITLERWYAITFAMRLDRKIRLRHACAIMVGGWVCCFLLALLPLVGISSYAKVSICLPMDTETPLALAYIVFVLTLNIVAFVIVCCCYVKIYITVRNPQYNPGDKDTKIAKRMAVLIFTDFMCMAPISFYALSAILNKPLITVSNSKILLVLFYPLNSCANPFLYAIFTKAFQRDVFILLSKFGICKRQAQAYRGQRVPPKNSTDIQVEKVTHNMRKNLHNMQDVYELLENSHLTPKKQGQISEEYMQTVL

B1: humanized antibody cAb01-VH2-DA-VL3 (named hAb01_G4P) (antibody, human IgG4 S228P, kappa)
heavy: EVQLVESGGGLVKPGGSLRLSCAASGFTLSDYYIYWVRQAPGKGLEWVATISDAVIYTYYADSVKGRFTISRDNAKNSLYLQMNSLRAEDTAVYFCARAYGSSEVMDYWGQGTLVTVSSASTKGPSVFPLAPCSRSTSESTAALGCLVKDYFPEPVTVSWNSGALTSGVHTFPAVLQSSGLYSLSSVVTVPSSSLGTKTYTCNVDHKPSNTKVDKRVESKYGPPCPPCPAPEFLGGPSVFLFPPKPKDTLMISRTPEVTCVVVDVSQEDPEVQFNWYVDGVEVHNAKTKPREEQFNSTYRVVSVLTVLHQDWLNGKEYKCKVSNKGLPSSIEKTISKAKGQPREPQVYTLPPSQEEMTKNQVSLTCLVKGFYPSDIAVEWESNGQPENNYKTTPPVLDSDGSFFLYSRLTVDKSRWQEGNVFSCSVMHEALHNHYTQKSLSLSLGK
light: EIVLTQSPATLSLSPGERATLSCSASSSVSYMHWYQQKPGQAPKRWIYDTSKLASGVPARFSGSGSGTDYTLTISSLEPEDFAVYYCQQWSSNPWTFGGGTKLEIKRTVAAPSVFIFPPSDEQLKSGTASVVCLLNNFYPREAKVQWKVDNALQSGNSQESVTEQDSKDSTYSLSSTLTLSKADYEKHKVYACEVTHQGLSSPVTKSFNRGEC
As a reminder, the Kd is the concentration at which binding is half-saturated. For orientation: EC50 means the concentration at which the effect is half-maximal. Take B1: in assay [1], the “IC50 (nM), cAMP in 293-human TSHR cells activated by Tab01” value (“IC50 (nM), cAMP … by Tab01” for short) came out at 2.28 nM; the “IC50 (nM), cAMP in 293-human TSHR cells activated by Tab02” value (from here on “IC50 (nM), cAMP … by Tab02”) was found to be 2.4 nM; the “Maximum inhibition rate (%), cAMP in 293-human TSHR cells activated by Tab01” value (from here on “Maximum inhibition rate (%), cAMP … by Tab01”) came to 102%; the “Maximum inhibition rate (%), cAMP in 293-human TSHR cells activated by Tab02” value (“Maximum inhibition rate (%), cAMP … by Tab02” below) is 94.2%. In assay [2], the Kd worked out at 343 nM and the “Response value (RU)” value was found to be 35.8 RU. Moreover, in [3], the “IC50(nM), cAMP in 293-human TSHR cells activated by Tab01 (30 nM)” value (shortened to “IC50(nM), cAMP … (30 nM)”) was 2.2 nM and the “IC50(nM), cAMP in 293-human TSHR cells activated by Tab02 (6.5 nM)” value (“IC50(nM), cAMP … (6.5 nM)” below) worked out at 2.2 nM. In assay [4], it took 3.22 nM to reach a half-maximal effect (EC50) and the Maximum binding signal stood at 123000. In [5], it took 2.6 nM to reach a half-maximal effect (EC50) and the Maximum binding signal is 193000.

B2: hAb01_G1_V4 (antibody, human IgG1, kappa, L234A L235A)
heavy: EVQLVESGGGLVKPGGSLRLSCAASGFTLSDYYIYWVRQAPGKGLEWVATISDAVIYTYYADSVKGRFTISRDNAKNSLYLQMNSLRAEDTAVYFCARAYGSSEVMDYWGQGTLVTVSSASTKGPSVFPLAPSSKSTSGGTAALGCLVKDYFPEPVTVSWNSGALTSGVHTFPAVLQSSGLYSLSSVVTVPSSSLGTQTYICNVNHKPSNTKVDKKVEPKSCDKTHTCPPCPAPEAAGGPSVFLFPPKPKDTLYITREPEVTCVVVDVSHEDPEVKFNWYVDGVEVHNAKTKPREEQYNSTYRVVSVLTVLHQDWLNGKEYKCKVSNKALPAPIEKTISKAKGQPREPQVYTLPPSRDELTKNQVSLTCLVKGFYPSDIAVEWESNGQPENNYKTTPPVLDSDGSFFLYSKLTVDKSRWQQGNVFSCSVMHEALHNHYTQKSLSLSPGK
light: B1 light
In assay [6], B2 came in with a concentration for a half-maximal effect (EC50) of 4.4 nM and a Max_MFI of 371000. Also, in assay [1], the “IC50 (nM), cAMP … by Tab01” value was determined as 5.4 nM; the “IC50 (nM), cAMP … by Tab02” value was found to be 2.04 nM; the “Maximum inhibition rate (%), cAMP … by Tab01” value was 94%; the “Maximum inhibition rate (%), cAMP … by Tab02” value was determined as 91.1%. For the same molecule, in assay [2], the affinity, expressed as Kd, was 90 nM and the “Response value (RU)” value is 94.5 RU. In assay [7], this molecule showed a 50% effective concentration (EC50) of 2.75 nM and a Max_MFI of 178000. In assay [8], this molecule gave an EC50 of 2.77 nM and a Max_MFI of 244000.

B3: humanized antibody cAb01-VH2-DA-VL2 (antibody, human IgG4 S228P, kappa, V domains shown)
VH: EVQLVESGGGLVKPGGSLRLSCAASGFTLSDYYIYWVRQAPGKGLEWVATISDAVIYTYYADSVKGRFTISRDNAKNSLYLQMNSLRAEDTAVYFCARAYGSSEVMDYWGQGTLVTVSS
VL: EIVLTQSPATLSLSPGERATLSCSASSSVSYMHWYQQKPGQAPRRWIYDTSKLASGIPARFSGSGSGTDYTLTISSLEPEDFAVYYCQQWSSNPWTFGGGTKLEIKR
notes: Humanized from mAb001
In assay [9], B3 gave a 50% effective concentration (EC50) of 3.71 nM and a Maximum binding signal of 396000. In assay [4], this molecule had an EC50 of 2.16 nM and a Maximum binding signal of 117000. Further, in assay [5], the EC50 is 2.14 nM and the Maximum binding signal worked out at 193000. For the same molecule, in assay [10], the “IC50(nM), cAMP … (30 nM)” value amounted to 0.28 nM; the “IC50(nM), cAMP … (6.5 nM)” value turned out to be 0.15 nM; the “Inhibition rate (%), cAMP in 293-human TSHR cells activated by Tab01 (30 nM)” value stood at 76.7%; the “Inhibition rate (%), cAMP in 293-human TSHR cells activated by Tab02 (6.5 nM)” value came to 86.2%.

B4: hAb01_G4P_V1 (antibody, human IgG4 S228P, kappa)
heavy: EVQLVESGGGLVKPGGSLRLSCAASGFTLSDYYIYWVRQAPGKGLEWVATISDAVIYTYYADSVKGRFTISRDNAKNSLYLQMNSLRAEDTAVYFCARAYGSSEVMDYWGQGTLVTVSSASTKGPSVFPLAPCSRSTSESTAALGCLVKDYFPEPVTVSWNSGALTSGVHTFPAVLQSSGLYSLSSVVTVPSSSLGTKTYTCNVDHKPSNTKVDKRVESKYGPPCPPCPAPEFLGGPSVFLFPPKPKDTLYITREPEVTCVVVDVSQEDPEVQFNWYVDGVEVHNAKTKPREEQFNSTYRVVSVLTVLHQDWLNGKEYKCKVSNKGLPSSIEKTISKAKGQPREPQVYTLPPSQEEMTKNQVSLTCLVKGFYPSDIAVEWESNGQPENNYKTTPPVLDSDGSFFLYSRLTVDKSRWQEGNVFSCSVMHEALHNHYTQKSLSLSLGK
light: B1 light
notes: also called hAb01_G4_V1
As to B4, in assay [6], the EC50 was determined as 5.82 nM and the Max_MFI was 282000. For the same molecule, in assay [1], the “IC50 (nM), cAMP … by Tab01” value stood at 2.95 nM; the “IC50 (nM), cAMP … by Tab02” value was found to be 2.74 nM; the “Maximum inhibition rate (%), cAMP … by Tab01” value turned out to be 105%; the “Maximum inhibition rate (%), cAMP … by Tab02” value worked out at 100%. In [2], the Kd stood at 119 nM and the “Response value (RU)” value came out at 73.1 RU. For the same molecule, in [7], the 50% effective concentration (EC50) was 2.35 nM and the Max_MFI was 138000. In assay [8], this molecule came in with an EC50 of 2.77 nM and a Max_MFI of 190000.

B5: humanized antibody cAb01-VH1-DA-VL3 (antibody, human IgG4 S228P, kappa, V domains shown)
VH: B3 VH with A49S, F95Y
VL: B3 VL with R44K, I57V
notes: Humanized from mAb001
In the case of B5, in [3], the “IC50(nM), cAMP … (30 nM)” value was 0.085 nM and the “IC50(nM), cAMP … (6.5 nM)” value was 0.054 nM. In assay [4], this molecule showed an EC50 of 2.9 nM and a Maximum binding signal of 106000. For the same molecule, in [5], the 50% effective concentration (EC50) amounted to 2.3 nM and the Maximum binding signal turned out to be 180000.

B6: hAb01_G4P_V2 (antibody, human IgG4 S228P, kappa)
heavy: B4 heavy with L234E
light: B1 light
notes: also called hAb01_G4_V2
For the molecule B6, in assay [6], the EC50 was determined as 4.64 nM and the Max_MFI was found to be 287000. In [1], the “IC50 (nM), cAMP … by Tab01” value is 4.18 nM; the “IC50 (nM), cAMP … by Tab02” value worked out at 4.38 nM; the “Maximum inhibition rate (%), cAMP … by Tab01” value was determined as 106%; the “Maximum inhibition rate (%), cAMP … by Tab02” value worked out at 100%. In addition, in assay [2], the Kd stood at 121 nM and the “Response value (RU)” value worked out at 73.5 RU. In addition, in assay [7], the half-maximal effective concentration (EC50) stood at 2.43 nM and the Max_MFI was 135000. Also, in [8], the EC50 was determined as 2.94 nM and the Max_MFI turned out to be 189000.

(Values after patent EP4582451A1 (Changchun Genescience Pharmaceutical Co., Ltd., dated 2025).)
